The values that follow come from paper PMC11832421, “Structural basis for the inhibition of PRC2 by active transcription histone posttranslational modifications” (Nature Structural & Molecular Biology, 2025).

B2: JARID2 1–450 with K116me3 (within PRC2AJ1–450) (domain or fragment, UniProt Q92833 1-450, looked up)
chain: MSKERPKRNIIQKKYDDSDGIPWSEERVVRKVLYLSLKEFKNSQKRQHAEGIAGSLKTVNGLLGNDQSKGLGPASEQSENEKDDASQVSSTSNDVSSSDFEEGPSRKRPRLQAQRKFAQSQPNSPSTTPVKIVEPLLPPPATQISDLSKRKPKTEDFLTFLCLRGSPALPNSMVYFGSSQDEEEVEEEDDETEDVKTATNNASSSCQSTPRKGKTHKHVHNGHVFNGSSRSTREKEPVQKHKSKEATPAKEKHSDHRADSRREQASANHPAAAPSTGSSAKGLAATHHHPPLHRSAQDLRKQVSKVNGVTRMSSLGAGVTSAKKMREVRPSPSKTVKYTATVTKGAVTYTKAKRELVKDTKPNHHKPSSAVNHTISGKTESSNAKTRKQVLSLGGASKSTGPAVNGLKVSGRLNPKSCTKEVGGRQLREGLQLREGLRNSKRRLEEAHQA
modifications: trimethyl-lysine at K116 (JARID2 K116me3)
notes: JARID2 residues 1–450; Stood in the assay as a subunit of m1; also called JARID2 K116me3; methylated JARID2; source: Sf9 insect cells (baculovirus), purified as part of the PRC2 complex

Test [1] concerns the target B2. The test is described as follows: cryo-EM structure; 100 nM nucleosome (biotinylated DNA, held on streptavidin affinity grids) with 500 nM PRC2 in 50 mM HEPES pH 7.5, 50 mM KCl, 0.5 mM TCEP, 100 µM S-adenosyl homocysteine; 3–5 min at room temperature. As to conditions: both partners purified.
In test [2] the target is T1, EZH2 (catalytic subunit, within the PRC2 complexes) (UniProt Q15910 1-746).
T1 construct: EZH2; Stood in the assay as a subunit of m1 or m2; source: Sf9 insect cells (baculovirus), purified as part of the PRC2 complex
T1 sequence (Q15910 whole entry, one chain of several): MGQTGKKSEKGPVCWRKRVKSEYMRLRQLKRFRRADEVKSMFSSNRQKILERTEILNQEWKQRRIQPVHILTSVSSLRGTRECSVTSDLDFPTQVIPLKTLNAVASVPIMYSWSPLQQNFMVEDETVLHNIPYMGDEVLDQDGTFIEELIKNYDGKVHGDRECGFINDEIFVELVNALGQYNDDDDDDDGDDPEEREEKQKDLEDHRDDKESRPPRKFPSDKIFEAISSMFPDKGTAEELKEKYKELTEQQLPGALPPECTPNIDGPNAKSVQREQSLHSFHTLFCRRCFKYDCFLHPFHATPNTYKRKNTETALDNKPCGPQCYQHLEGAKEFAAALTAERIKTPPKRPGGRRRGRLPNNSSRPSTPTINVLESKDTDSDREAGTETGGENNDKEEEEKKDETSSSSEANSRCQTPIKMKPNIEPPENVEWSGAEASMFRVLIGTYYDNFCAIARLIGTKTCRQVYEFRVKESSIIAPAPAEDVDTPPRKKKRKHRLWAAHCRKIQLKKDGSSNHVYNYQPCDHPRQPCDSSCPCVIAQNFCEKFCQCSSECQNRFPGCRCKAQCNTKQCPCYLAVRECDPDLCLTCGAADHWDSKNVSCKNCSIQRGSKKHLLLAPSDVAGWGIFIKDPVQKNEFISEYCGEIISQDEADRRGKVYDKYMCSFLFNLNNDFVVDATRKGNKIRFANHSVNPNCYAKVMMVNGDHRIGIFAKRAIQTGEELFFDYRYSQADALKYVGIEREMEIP
The description is as above. The note with it: both partners purified.

B1: EED (core subunit, within the PRC2 complexes) (natural protein)
chain: not shown
notes: EED; Stood in the assay as a subunit of m1 or m2; source: Sf9 insect cells (baculovirus), purified as part of the PRC2 complex
Consider B1, for which, in test [1], the binding result is “binds”. B2: in test [2], the binding result is “binds”.
